# Results as given in patent US10568950B1, “Peptides, combination of peptides and scaffolds for use in immunotherapeutic treatment of various cancers” (Immatics Biotechnologies GmbH, priority 2015, dated 2020).
# Molecular target: HLA-A*02 (Homo sapiens, UniProt P04439, D140Y/D185E/D98H/E176V/E277Q/G131W/G231S/I119V/I121R/I166T/I218V/N151K/N90K/P208A/P217A/Q86G/Q94H/R138H/R169H)
# Test: MHC binding assay: UV-ligand exchange, beta2m ELISA (peptide exchange yield)
# Details: binding to HLA-A*02, β2m ELISA
# Excerpt: Candidate peptides for T cell based therapies according to the present invention were further tested for their MHC binding capacity (affinity). The individual peptide-MHC complexes were produced by UV-ligand exchange, where a UV-sensitive peptide is cleaved upon UV-irradiation, and exchanged with the peptide of interest as analyzed. Only peptide candidates that can effectively bind and stabilize the peptide-receptive MHC molecules prevent dissociation of the MHC complexes. To determine the yield of the exchange reaction, an ELISA was performed based on the detection of the light chain (β2m) of stabilized MHC complexes. The assay was performed as generally described in Rodenko et al. (Rodenko et al., 2006).
# 96 well MAXISorp plates (NUNC) were coated over night with 2 ug/ml streptavidin in PBS at room temperature, washed 4× and blocked for 1 h at 37° C. in 2% BSA containing blocking buffer. […] Peptide-MHC monomers of the UV-exchange reaction were diluted 100 fold in blocking buffer. Samples were incubated for 1 h at 37° C., washed four times, incubated with 2 ug/ml HRP conjugated anti-βm for 1 h at 37° C., washed again and detected with TMB solution that is stopped with […]. Absorption was measured at 450 nm. Candidate peptides that show a high exchange yield (preferably higher than 50%, most preferred higher than 75%) are generally preferred for a generation and production of antibodies or fragments thereof, and/or T cell receptors or fragments thereof, as they show sufficient avidity to the MHC molecules and prevent dissociation of the MHC complexes.
row,Substance,"Peptide exchange (MHC class I binding score, peptide exchange yield)"
1,1 (PLWGKVFYL; listed as Homo sapiens) [compound 1],++ (20%-49% = ++)
2,3 (TLLGKQVTL; listed as Homo sapiens) [compound 3],+++ (50%-75% = +++)
3,4 (ELAEIVFKV; listed as Homo sapiens) [compound 4],+++ (50%-75% = +++)
4,5 (SLFGQEVYC; listed as Homo sapiens) [compound 5],+++ (50%-75% = +++)
5,6 (FLDPAQRDL; listed as Homo sapiens) [compound 6],+++ (50%-75% = +++)
6,10 (KTLDVFNIIL; listed as Homo sapiens) [compound 10],++ (20%-49% = ++)
7,11 (GVLKVFLENV; listed as Homo sapiens) [compound 11],++ (20%-49% = ++)
8,12 (GLIYEETRGV; listed as Homo sapiens) [compound 12],++ (20%-49% = ++)
9,13 (VLRDNIQGI; listed as Homo sapiens) [compound 13],+++ (50%-75% = +++)
10,14 (LLDHLSFINKI; listed as Homo sapiens) [compound 14],++ (20%-49% = ++)
11,16 (HLYNNEEQV; listed as Homo sapiens) [compound 16],++ (20%-49% = ++)
12,18 (YVLNEEDLQKV; listed as Homo sapiens) [compound 18],+++ (50%-75% = +++)
13,19 (TLLPTVLTL; listed as Homo sapiens) [compound 19],+++ (50%-75% = +++)
14,20 (ALDGHLYAI; listed as Homo sapiens) [compound 20],+++ (50%-75% = +++)
15,21 (SLYHRVLLY; listed as Homo sapiens) [compound 21],++++ (>= 75% = ++++)
16,22 (MLSDLTLQL; listed as Homo sapiens) [compound 22],++++ (>= 75% = ++++)
17,23 (AQTVVVIKA; listed as Homo sapiens) [compound 23],+ (<20% = +)
18,24 (FLWNGEDSAL; listed as Homo sapiens) [compound 24],+++ (50%-75% = +++)
19,25 (IQADDFRTL; listed as Homo sapiens) [compound 25],++ (20%-49% = ++)
20,26 (KVDGVVIQL; listed as Homo sapiens) [compound 26],+++ (50%-75% = +++)
21,27 (KVFGDLDQV; listed as Homo sapiens) [compound 27],+++ (50%-75% = +++)
22,28 (TLYSMDLMKV; listed as Homo sapiens) [compound 28],+++ (50%-75% = +++)
23,29 (TLCNKTFTA; listed as Homo sapiens) [compound 29],+++ (50%-75% = +++)
24,31 (ALSDETKNNWEV; listed as Homo sapiens) [compound 31],++++ (>= 75% = ++++)
25,32 (ILADEAFFSV; listed as Homo sapiens) [compound 32],+++ (50%-75% = +++)
26,33 (LLLPLLPPLSPSLG; listed as Homo sapiens) [compound 33],+++ (50%-75% = +++)

row,Substance,"Peptide exchange (MHC class I binding score, peptide exchange yield)"
1,35 (YVLPKLYVKL; listed as Homo sapiens) [compound 35],++ (20%-49% = ++)
2,36 (KLYGIEIEV; listed as Homo sapiens) [compound 36],++++ (>= 75% = ++++)
3,37 (ALINDILGELVKL; listed as Homo sapiens) [compound 37],+++ (50%-75% = +++)
4,38 (KMQEDLVTL; listed as Homo sapiens) [compound 38],+++ (50%-75% = +++)
5,39 (ALMAVVSGL; listed as Homo sapiens) [compound 39],+++ (50%-75% = +++)
6,40 (SLLALPQDLQA; listed as Homo sapiens) [compound 40],+++ (50%-75% = +++)
7,41 (FVLPLVVTL; listed as Homo sapiens) [compound 41],+++ (50%-75% = +++)
8,42 (VLSPFILTL; listed as Homo sapiens) [compound 42],+++ (50%-75% = +++)
9,44 (GLLWQIIKV; listed as Homo sapiens) [compound 44],++ (20%-49% = ++)
10,45 (VLGPTPELV; listed as Homo sapiens) [compound 45],+++ (50%-75% = +++)
11,46 (SLAKHGIVAL; listed as Homo sapiens) [compound 46],+++ (50%-75% = +++)
12,47 (GLYQAQVNL; listed as Homo sapiens) [compound 47],+++ (50%-75% = +++)
13,48 (TLDHKPVTV; listed as Homo sapiens) [compound 48],++ (20%-49% = ++)
14,49 (LLDESKLTL; listed as Homo sapiens) [compound 49],+++ (50%-75% = +++)
15,50 (EYALLYHTL; listed as Homo sapiens) [compound 50],++ (20%-49% = ++)
16,51 (LLLDGDFTL; listed as Homo sapiens) [compound 51],+++ (50%-75% = +++)
17,52 (ELLSSIFFL; listed as Homo sapiens) [compound 52],+++ (50%-75% = +++)
18,53 (SLLSHVIVA; listed as Homo sapiens) [compound 53],+++ (50%-75% = +++)
19,54 (FINPKGNWLL; listed as Homo sapiens) [compound 54],+++ (50%-75% = +++)
20,55 (IASAIVNEL; listed as Homo sapiens) [compound 55],++ (20%-49% = ++)
21,56 (KILDLTRVL; listed as Homo sapiens) [compound 56],++ (20%-49% = ++)
22,57 (VLISSTVRL; listed as Homo sapiens) [compound 57],++ (20%-49% = ++)
23,58 (ALDDSLTSL; listed as Homo sapiens) [compound 58],++ (20%-49% = ++)
24,59 (ALTKILAEL; listed as Homo sapiens) [compound 59],+++ (50%-75% = +++)
25,60 (FLIDTSASM; listed as Homo sapiens) [compound 60],++ (20%-49% = ++)
